According to patent US20190153078A1 (Sanofi, published 2019):
Residue numbers refer to the chain shown, from its start. Read-outs that look alike come from different tables or passages of the source.

Tests used:
[1] = target: T1, C. difficile toxin B from strain VPI10463 (ATCC 43255), toxinotype 0 (Clostridium difficile, UniProt P18177 2-2366); assay: cell-based or functional assay
[2] = target: T1, C. difficile toxin B from strain …; assay: BLI (Octet Red96), antibody on Protein A sensor, toxin in solution
[3] = target: T1, C. difficile toxin B from strain …; assay: cell-based or functional assay; remark: listed apart in the source
[4] = target: T2, C. difficile toxin A from strain VPI10463 (ATCC 43255), toxinotype 0 (Clostridium difficile, UniProt P16154 1-2710); assay: cell-based or functional assay
[5] = target: T2, C. difficile toxin A from strain …; assay: BLI (Octet Red96), antibody on Protein A sensor, toxin in solution
[6] = target: T2, C. difficile toxin A from strain …; assay: cell-based or functional assay; remark: listed apart in the source
[7] = target: T3, WT Toxin B MLD (1-91) + LPETGG + 6X HIS (Clostridium difficile); assay: Western, dot blot, Octet (summary)
[8] = target: Mutant Toxin B MLD (1-91) + LPETGG + 6X HIS (Clostridium difficile); assay: BLI (Octet RED96)
[9] = target: T3, WT Toxin B MLD (1-91) + LPETGG + 6X HIS; assay: BLI (Octet RED96)
[10] = target: T2, C. difficile toxin A from strain …
[11] = target: T1, C. difficile toxin B from strain …

B1: B5 antibody (antibody, V domains shown)
VH: QVHLQESGPGLVKPSGTLSLTCAVSGGSISYTNWWSWVRLPPGKGLEWIGEIYHSRSTNYNPSLKSRVTMSIDKSKNLFSLKLNSVTAADTAIYYCAKAAYTRDGIQPFDNWGQGTLVTVSS
VL: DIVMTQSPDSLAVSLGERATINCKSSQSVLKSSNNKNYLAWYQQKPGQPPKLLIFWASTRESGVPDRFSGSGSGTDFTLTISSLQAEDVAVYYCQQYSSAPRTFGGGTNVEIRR
- % completion TEER (T-84 cells) [1]: 70%
- TEER NT50 (T-84 cells) [1]: 200
- Kd [2]: 202 pM
- koff [2]: 9.62e-05 s⁻¹
- kon [2]: 477000 M⁻¹ s⁻¹
- % completion cytotox (Vero cells) [3]: 95%
- Cytotox NT50, pM (Vero cells) [3]: 2900 pM

B2: B4 antibody (antibody, V domains shown)
VH: EVQLVESGGGLVKPGGSLRVSCAASGFTFSSYSMNWIRQAPGKGLEWVSSISSNSSYIYYADSVKGRFTISRDNAKNSLYLQMNSLRAEDTAVYYCARDRDYSNYLTAWGQGTLVTVSS
VL: QSVLTQPPSVSGAPGQRVTISCTGSSSNIGAGYDVHWYRQLPGTAPKLLIYGKNNRPSGVPNRFSGSKSGTSASLAITGLQAEDEADYYCQSYDSSLSGSVFGGGTKLTVLG
- % completion TEER (T-84 cells) [1]: 93%
- TEER NT50 (T-84 cells) [1]: 130
- Kd [2]: 121 pM
- koff [2]: 6.44e-05 s⁻¹
- kon [2]: 531000 M⁻¹ s⁻¹

B3: A3 antibody (antibody, V domains shown)
VH: MQLLESGGGLVKPGGSLRLSCAASGFTFSNAWMSWVRQGPGKGLEWVGRIKSKTDGGTTDYAAPVKGRFSISRNDSNNTLFLQMNSLKTEDTAVYYCTTGPQIVVVAGATSRDQPNYYYYGLDVWGLGTTVTVSS
VL: QSVLTQPPSASGTPGQRVTISCSGSSSNIGINTVNWYQQLPGTAPKLLIYKSNLRPSGVPDRFSGSKSGTSASLAISGLRSEDEADYYCAAWDDSLTGLYVFGTGTKVTVLG
- % completion TEER (T-84 cells) [4]: 80%
- TEER NT50, nM (T-84 cells) [4]: 1.3 nM
- Kd [5]: 461 pM
- koff [5]: 7.77e-05 s⁻¹
- kon [5]: 169000 M⁻¹ s⁻¹
- % completion cytotox (Vero cells) [6]: 90%
- Cytotox NT50, pM (Vero cells) [6]: 980 pM

B4: B1 antibody (antibody, V domains shown)
VH: EVQLVESGGGLVQPGGSLRLSCAASGFTFRSYWMHWVRQVPGKGLVWVSCINKEGSSTTYADSVKGRFTISRDNAKNTLYLEMNSLRADDTAVYYCLRGYDVDYWGQGTLVTVSS
VL: QAVLTQPSSLSASPGASVSLTCTLRSGINVGTYRIYWYQQKPGSPPRYLLRYKSGLDKHQGSGVPSRFSGSKDDSANAGILFISGLQSEDEADYYCLIWHSSAVVFGGGTKLTVLG
- % completion TEER (T-84 cells) [1]: 91%
- TEER NT50 (T-84 cells) [1]: 270
- binding result [7]: no binding
- Kd [2]: 47.7 pM
- koff [2]: 2.79e-05 s⁻¹
- kon [2]: 585000 M⁻¹ s⁻¹
- % completion cytotox (Vero cells) [3]: 95%
- Cytotox NT50, pM (Vero cells) [3]: 49 pM
- binding result [8]: no binding

B5: B3 antibody (antibody, V domains shown)
VH: B4 VH with A23S, E82Q
VL: B4 VL with I28V, T32S, D90N, E91D, S101N
- % completion TEER (T-84 cells) [1]: 95%
- TEER NT50 (T-84 cells) [1]: 600
- Kd [2]: 487 pM
- koff [2]: 9.4e-05 s⁻¹
- kon [2]: 193000 M⁻¹ s⁻¹
- % completion cytotox (Vero cells) [3]: 100%
- Cytotox NT50, pM (Vero cells) [3]: 100 pM
- binding result [8]: no binding
- binding result [9]: no binding

B6: A4 antibody (antibody, V domains shown)
VH: QVHLVESGGGVVQPGRSLRLSCATFGLNFSDYGFHWVRQAPGKGLEWVAVTSYDGSNKYYAEFVKGRFTISRDNYKNTVYLQMNSLRLEDTAVYYCARDLAPYNFWSGYGNNWFDPWGQGTLVTVSS
VL: EIVLTQSPGTLSLSPGERATLSCRASQSVTGTSLAWFQQKPGQAPRLLIYGASSRATGIPDRFSGSGSGTDFTLTISRLEPEDFAVYYCQQYGSSPRLTFGGGTKVEIKR
- TEER NT50, nM (T-84 cells) [4]: 4.7 nM
- Kd [5]: 0.557 pM
- koff [5]: 3.09e-07 s⁻¹
- kon [5]: 555000 M⁻¹ s⁻¹
- Kd [10]: < 10 pM
- % completion cytotox (Vero cells) [6]: < 90%
- Cytotox NT50, pM (Vero cells) [6]: 3400 pM

B7: A5 antibody (antibody, V domains shown)
VH: B6 VH
VL: EIVMTQSPATLSVSPGERATLSCRASQSISSNLAWYQQKPGQAPRLLIYDASTRATGIPARFSGSGSGTEFTLTISSLQSEDFAVYYCQQYNDWLVTFGQGTKVEIKR
- TEER NT50, nM (T-84 cells) [4]: 7.3 nM
- Kd [5]: 144 pM
- koff [5]: 4.49e-05 s⁻¹
- kon [5]: 312000 M⁻¹ s⁻¹
- % completion cytotox (Vero cells) [6]: 75%
- Cytotox NT50, pM (Vero cells) [6]: 2700 pM

B8: B6 antibody (antibody, V domains shown)
VH: EVQLVESGGGLVQPGGSLRLSCAASGFTFTTSTMNWVRQAPGKGLEWVSYITRTSTVIYYADSVKGRFTISRDNAKNSLYLQMSSLRAEDTAVYYCARGVRDIGGNGFDYWGQGTLVTVSS
VL: B6 VL with G31S, T32S, S33Y, F37Y, P41T, S77A, R97P, L98Y, G102Q, V106L
- % completion TEER (T-84 cells) [1]: 92%
- TEER NT50 (T-84 cells) [1]: 100
- Kd [2]: 0.726 pM
- koff [2]: 5.3e-07 s⁻¹
- kon [2]: 730000 M⁻¹ s⁻¹
- Kd [11]: < 10 pM

B9: A1 antibody (antibody, V domains shown)
VH: QVHLQESGPGLVKPSETLSLTCTVSGDSISTYYWSWIRQPPGKGLEWIGYVYYTGSTNYSPSLEGRVTLSVDTSKNQFSLKLNSVSAADTAVYYCARGAAEWLRFRGFFDYWGQGILVSVSS
VL: EVVLTQSPGTLSLSPGERATLSCRASQSVTNGFLAWYQQKPGQAPRVLIYGASSRATGIPDRFSGSGSGTDFTLTISRLEPEDFAMYYCQQYGLSGTFGQGTKLEIKR
- % completion TEER (T-84 cells) [4]: 80%
- TEER NT50, nM (T-84 cells) [4]: < 1.3 nM
- Kd [5]: < 10 pM
- koff [5]: < 3.75e-06 s⁻¹
- kon [5]: 375000 M⁻¹ s⁻¹
- % completion cytotox (Vero cells) [6]: < 90%
- Cytotox NT50, pM (Vero cells) [6]: 48 pM

B10: A2 antibody (antibody, V domains shown)
VH: QVQLQESGPGLVKPSETLSLTCTVSGGSISTYYWSWIRQSPGKGLEWMGYIYYSGSTNYNPSLESRVTIAVDTSKNQFSLQLTSVTAADTAVYYCARGAAEWLRFRGFFDSWGQGTLVTVSS
VL: B9 VL with V2N, Q27H, G32N, V47L, A52V, M86V, L94V
- % completion TEER (T-84 cells) [4]: 75%
- TEER NT50, nM (T-84 cells) [4]: 1.8 nM
- Kd [5]: 4.43 pM
- koff [5]: 1.58e-06 s⁻¹
- kon [5]: 356000 M⁻¹ s⁻¹
- Kd [10]: < 10 pM
- % completion cytotox (Vero cells) [6]: 100%
- Cytotox NT50, pM (Vero cells) [6]: 55 pM
